According to US20250161357A1, “HUMAN T CELL RECEPTOR PAIRS REACTIVE WITH HLA-A*02:01 RESTRICTED HUMAN PROSTATIC ACID PHOSPHATASE (PAP) EPITOPES” (The Regents of the University of California, priority 2022, published 2025):

Key:
HLA-A*02:01 [1] = target: HLA-A*02:01 (Homo sapiens, UniProt P04439, D140Y/D185E/D98H/E176V/E277Q/G131W/G231S/I119V/I121R/I166T/I218V/L300P/L318F/N151K/N90K/P208A/P217A/Q86G/Q94H/R138H/R169H/T345S); experiment: T2 peptide binding (stabilization) assay; format: cell-based; details: peptides exogenously pulsed on T2 cells; anti-HLA-A2 FITC (BB7.2), FACS
HLA-A*02:01 [2] = target: T1, HLA-A*02:01 (Homo sapiens, UniProt P04439, D140Y/D185E/D98H/E176V/E277Q/G131W/G231S/I119V/I121R/I166T/I218V/L300P/L318F/N151K/N90K/P208A/P217A/Q86G/Q94H/R138H/R169H/T345S/Y108C); experiment: Secreted single-chain trimer (SCT) quantification assay
T1 construct: made in house
From the text: Peptide-MHC I complexes processed by endogenous machinery might show different stability compared to exogenous peptide pulsing (such as in T2 binding assays). This can be the result of post-translational modifications (PTMs). A recently developed technique, secreted single-chain trimer (SCT), was used to evaluate relative stability of pMHC of interest (36). In the secreted SCT construct, MHC I heavy chain (HLA-A*02:01 alpha chain with H74L and Y84C mutation), light chain (beta-microglobulin), and corresponding peptide were tethered by linkers as one single chain molecule (FIG. 3a). Constructs were expressed in cells and released into culture supernatant. Only peptides favored by HLA-A*02:01 are expected to generate a stable SCT and have higher yields. The quantity of SCTs was measured by band intensity on SDS-PAGE and normalized against a well-known WT1 cancer epitope that is restricted on HLA-A*02:01 ([…]) (FIG. 3b) (37, 38).
SCT quantification assay: SCT constructs (mutant H74L/Y84C) with individual PAP peptides were synthesized according to the previously published protocol (36).

PAP+ target cells = details: video evidence; cited from earlier work
PAP = target: T2, PAP (Homo sapiens, UniProt P15309); details: positive response SI>5 at week 6 post immunization; cited from earlier work
T2 sequence (P15309 33-386): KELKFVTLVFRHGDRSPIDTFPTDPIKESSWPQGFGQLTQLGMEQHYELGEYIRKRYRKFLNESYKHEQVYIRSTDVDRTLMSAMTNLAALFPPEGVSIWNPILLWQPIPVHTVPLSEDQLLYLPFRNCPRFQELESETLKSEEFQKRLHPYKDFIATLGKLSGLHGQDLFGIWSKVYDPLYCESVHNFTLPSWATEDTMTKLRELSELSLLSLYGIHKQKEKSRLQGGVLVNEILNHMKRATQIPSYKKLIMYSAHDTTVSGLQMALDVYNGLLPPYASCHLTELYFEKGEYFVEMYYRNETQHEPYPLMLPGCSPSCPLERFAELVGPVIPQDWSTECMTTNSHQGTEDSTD

[3] = men with metastatic castration-resistant prostate cancer; cited from earlier work
[4] = target: T3, prostatic acid phosphatase (PAP); peptide PAP_A2_25 peptide on HLA-A*02:01 (human); experiment: cytokine release
T3 peptide: IMYSAHDTTV

HLA-A*02:01 on T2 cells [5] = target: T4, HLA-A*02:01 on T2 cells (human); experiment: T2 stabilization assay, HLA-A2 on T2 cells by anti-A2 (BB7.2) FITC flow cytometry
T4 construct: also called HLA-A2; A2

HLA-A*02:01 on T2 cells [6] = target: T4, HLA-A*02:01 on T2 cells; experiment: T2 binding assay, HLA-A2 on T2 cells by anti-A2 (BB7.2) FITC flow cytometry
[7] = target: T5, prostatic acid phosphatase (PAP); peptide PAP_A2_21 peptide on HLA-A*02:01 (human); experiment: activation reporter or marker
T5 peptide: LLLARAASLSL

[8] = target: T6, prostatic acid phosphatase (PAP); peptide PAP_A2_14 peptide on HLA-A*02:01 (human); experiment: multimer staining
T6 peptide: ILLWQPIPV

ILLWQPIPV (listed as Homo sapiens) [PAP-A2-14]
HLA-A2 signal in T2 assay (slope of natural log of A2 fluorescent intensity vs diluted peptide concentration) (HLA-A*02:01 [1]): Positive

IMYSAHDTTV (listed as Homo sapiens) [PAP-A2-25]
HLA-A2 signal in T2 assay (slope of natural log of A2 fluorescent intensity vs diluted peptide concentration) (HLA-A*02:01 [1]): Positive

KVYDPLYCESV (listed as Homo sapiens) [PAP-A2-20]
HLA-A2 signal in T2 assay (slope of natural log of A2 fluorescent intensity vs diluted peptide concentration) (HLA-A*02:01 [1]): Positive

LLLARAASLSL (listed as Homo sapiens) [PAP-A2-21]
HLA-A2 signal in T2 assay (slope of natural log of A2 fluorescent intensity vs diluted peptide concentration) (HLA-A*02:01 [1]): Positive

SVHNFTLPSW (listed as Homo sapiens) [PAP-A2-24]
affinity toward HLA-A*02:01 after glycosylation (HLA-A*02:01 [2]; N-glycosylated peptide in SCT): altered affinity
SCT yield normalized to control WT1 epitope (RMFPNAPYL) (HLA-A*02:01 [2]; band intensity on SDS-PAGE, cutoff 0.2 for relatively high stability): 1.40

sipuleucel-T
lysis of PAP+ target cells by T cells from treated patients (PAP+ target cells): capable of lysing
patients displaying T cell proliferation responses to PAP (PAP): 27.2%
median improvement in overall survival [3]: 4.1 months

B1: PAP-TCR-213 (TCR, V domains shown)
Valpha: TQLLEQSPQFLSIQEGENLTVYCNSSSVFSSLQWYRQEPGEGPVLLVTVVTGGEVKKLKRLTFQFGDARKDSSLHITAAQPGDTGLYLCAGAPETSGSRLTFGEGTQLTVNP
Vbeta: GAGVSQTPSNKVTEKGKYVELRCDPISGHTALYWYRQSLGQGPEFLIYFQGTGAADDSGLPNDRFFAVRPEGSVSTLKIQRTERGDSAVYLCASSFGGGSSPLHFGNGTRLTVT
binding result [4]: recognises

KVYDPLYCESV [PAP-A2-20 peptide KVYDPLYCESV]
binding result (HLA-A*02:01 on T2 cells [5]): binds

TLMSAMTNL [PAP-A2-22 peptide TLMSAMTNL]
binding result (HLA-A*02:01 on T2 cells [6]): binds

LLLARAASLSL (also called PAP-21) [PAP-A2-21 peptide LLLARAASLSL]
binding result (HLA-A*02:01 on T2 cells [5]): binds

B2: PAP-TCR-225 (TCR, V domains shown)
Valpha: DQQVKQNSPSLSVQEGRISILNCDYTNSMFDYFLWYKKYPAEGPTFLISISSIKDKNEDGRFTVFLNKSAKHLSLHIVPSQPGDSAVYFCAASVDEKLTFGTGTRLTIIP
Vbeta: DTGVSQNPRHKITKRGQNVTFRCDPISEHNRLYWYRQTLGQGPEFLTYFQNEAQLEKSRLLSDRFSAERPKGSFSTLEIQRTEQGDSAMYLCASSLQVEQFFGPGTRLTVL
binding result [7]: recognises

B3: PAP-TCR-175 (TCR, V domains shown)
Valpha: ILNVEQSPQSLHVQEGDSTNFTCSFPSSNFYALHWYRWETAKSPEALFVMTLNGDEKKKGRISATLNTKEGYSYLYIKGSQPEDSATYLCAFEDSGYSTLTFGKGTMLLVSP
Vbeta: DAGITQSPRYKITETGRQVTLMCHQTWSHSYMFWYRQDLGHGLRLIYYSAAADITDKGEVPDGYVVSRSKTENFPLTLESATRSQTSVYFCASGGLAGVDEQYFGPGTRLTVT
binding result [7]: recognises

B4: PAP-TCR-204 (TCR, V domains shown)
Valpha: AQSVTQPDIHITVSEGASLELRCNYSYGATPYLFWYVQSPGQGLQLLLKYFSGDTLVQGIKGFEAEFKRSQSSFNLRKPSVHWSDAAEYFCAVGAGDYKLSFGAGTTVTVRA
Vbeta: ETGVTQTPRHLVMGMTNKKSLKCEQHLGHNAMYWYKQSAKKPLELMFVYSLEERVENNSVPSRFSPECPNSSHLFLHLHTLQPEDSALYLCASSQTTGQPQHFGDGTRLSIL
binding result [8]: recognises
